In publication PMC9993842 (2023):

Target: LRP2 (megalin) (Mus musculus, UniProt A2ARV4)
Assay: SPR

B1: RAP (receptor-associated protein) (protein)
chain: YSREKNQPKPSPKRESGEEFRMEKLNQLWEKAQRLHLPPVRLAELHADLKIQERDELAWKKLKLDGLDEDGEKEARLIRNLNVILAKYGLDGKKDARQVTSNSLSGTQEDGLDDPRLEKLWHKAKTSGKFSGEELDKLWREFLHHKEKVHEYNVLLETLSRTEEIHENVISPSDLSDIKGSVLHSRHTELKEKLRSINQGLDRLRRVSHQGYSTEAEFEEPRVIDLWDLAQSANLTDKELEAFREELKHFEAKIEKHNHYQKQLEIAHEKLRHAESVGDGERVSRSREKHALLEGRTKELGYTVKKHLQDLSGRISRARHNEL
For B1, the Kd was 5.8 nM.
